The source of these data is patent US10513545B2, “Fusion polypeptide in which anti-inflammatory polypeptide and ferritin monomer fragment are bound and pharmaceutical composition for preventing and treating inflammatory diseases, containing same as active ingredient” (KYUNGPOOK NATIONAL UNIVERSITY INDUSTRY-ACADEMIC COOPERATION …, priority 2015, dated 2019).

The subject of experiment [1] is HUVECs. Kind of experiment: HUVEC cell-binding assay with fluorescence-labeled molecules (in vitro). In kind it is cell-based, human. The note with it: for degree of binding to HUVECs: FIG. 10, compared with PC-Gla; for in vitro binding to endothelial cells compared with PC-Gla: HUVEC, FIG. 12A. Here is the method: PC-Gla, TFG, and TFMG were labeled with FNG-456 NHS ester for in vitro assays or FNI-675 NHS ester for in vivo assays at a molar ratio of 1:3. Briefly, each molecule (10 μM) was dissolved in PBS (1.5 mL), and FNG-456 NHS ester (30 μM) or FNI-675 NHS ester (30 μM) was dissolved in DMSO (0.2 mL). Each molecule and fluorescent dye was reacted at room temperature for 3 h. The reaction product was passed through a 0.2-μm filtering unit, and the unreacted dye was separated on a PD midiTrap™ G-25 (GE Healthcare, UK) that had been pre-equilibrated in PBS with 2 mM sodium azide. This process yielded more than 2.17 μM of each nanoparticle with more than 1.5 ratio of dye per protein.
A direct cell-binding assay was performed on HUVECs and in vivo using fluorescence labeled-PC-Gla, TFG, and TFMG. The assay was performed with PC-Gla, TFG, or TFMG treated on HUVECs, intravenously injected mice, and isolated mouse endothelial cells. The fluorescence value of the HUVECs or endothelial cells were measured with tightly bound PC-Gla, TFG, and TFMG, respectively. The concentrations of PC-Gla, TFG, and TFMG were measured by using the nanoparticle ratio of fluorescent dye per protein.

For experiment [2], the system named is CLP-induced sepsis. Put plainly: in vivo vascular permeability assay (Evans blue leakage). On the set-up: species or system mouse. Particulars: CLP-operated mice, intravenous, FIG. 20. Here is the method: CLP-operated mice were injected with PC-Gla with TRAP, TFG, or TFMG intravenously. After 6 h, 1% Evans blue dye solution in normal saline was injected intravenously into each mouse. Thirty minutes later, the mice were sacrificed, and the peritoneal exudates were collected after being washed with normal saline (5 mL) and centrifuged at 200×g for 10 min. The absorbance of the supernatant was read at 650 nm. The vascular permeability was expressed in terms of dye (mg/mouse), which leaked into the peritoneal cavity according to a standard curve of Evans blue dye, as previously described.

The test system of experiment [3] is CLP-induced sepsis. Put plainly: survival in animal model of CLP-induced sepsis. In kind it is in vivo, mouse. Particulars: for survival rate: in comparison with PC-Gla and TRAP co-administration group, FIG. 14; for overall effectiveness in sepsis treatment: taken together, in comparison with PC-Gla and TRAP co-administered group. The protocol:
Male C57BL/6 mice (6-7 weeks of age, 18-20 g) were purchased from Orient Biotech (Seongnam, Gyeonggi Province, Republic of Korea) and used after 12 days of acclimation. Five mice per cage were housed under the conditions of a controlled temperature (20-25° C.), humidity (40-45%), and 12:12 h day/night cycle, while being fed with a normal rodent pellet and water ad libitum. All animals were treated according to the Guidelines for the Care and Use of Laboratory Animals issued by Kyungpook National University.
To induce inflammation, male mice were anesthetized with 2% isoflurane (JW Pharmaceutical, Republic of Korea) in oxygen delivered via a small rodent gas anesthesia machine (RC2, Vetequip, Pleasanton, Calif.), first in a breathing chamber and then via a facemask. They were allowed to breathe spontaneously during this procedure. The CLP-induced inflammation model was prepared as previously described. In brief, a 2-cm midline incision was made to expose the cecum and adjoining intestine. The cecum was then tightly ligated with a 3.0-silk suture at 5.0 mm from the cecal tip and punctured once using a 22-gauge needle for the induction of high grade inflammation. It was then squeezed gently to extrude a small amount of feces from the perforation site and returned to the peritoneal cavity. The laparotomy site was then sutured with 4.0-silk. In sham control animals, the cecum was exposed but not ligated or punctured and then returned to the abdominal cavity. This protocol was approved by the Animal Care Committee at Kyungpook National University prior to the conduct of the study (IRP No, KNU 2012-13).
All experiments were performed independently at least three times. Values are expressed as means±SEM. The statistical significance of differences between test groups was evaluated using SPSS for Windows, version 16.0 (SPSS, Chicago, Ill.). Statistical relevance was determined by one-way analysis of variance (ANOVA) and Tukey's post-test. P values less than 0.05 were considered to indicate a statistical significance. Survival analysis of CLP-induced sepsis was performed using Kaplan-Meier analysis.

Experiment [4] concerns the target T1, EPCR (Mus musculus, UniProt Q64695).
T1 construct: from tissue; host or cells: mouse vena cava
T1 sequence (Q64695 18-242): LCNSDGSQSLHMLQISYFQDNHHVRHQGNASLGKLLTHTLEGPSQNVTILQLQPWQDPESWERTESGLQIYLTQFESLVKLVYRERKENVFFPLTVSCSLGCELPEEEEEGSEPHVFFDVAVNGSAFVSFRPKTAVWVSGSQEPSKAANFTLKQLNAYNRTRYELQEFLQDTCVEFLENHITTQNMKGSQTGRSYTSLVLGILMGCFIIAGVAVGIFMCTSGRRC
Kind of experiment: histological analysis of EPCR binding in vivo (mouse vena cava). The note with it: injected intravenously, FIG. 11. The protocol:
Twenty-four hours prior to CLP surgery, fluorescence labeled-PC-Gla, TFG, and TFMG (200 nM/mouse) was intravenously injected into the mice, respectively. After 24 h, mouse vena cava was enucleated and fixed in visikol for 24 h. Subsequently, vena cava was embedded in optimum cutting temperature (OCT) compound (Tissue Tek) at −80° C. Consecutive sections were incubated with anti-EPCR antibody (Santa Cruz, Calif.), anti-rabbit Alexa 488 (green), anti-CD31 antibody, and anti-rabbit Alexa 350 (blue), and observed by confocal microscopy at 63× magnification (TCS-SP5, Leica microsystem, Germany).

Experiment [5] concerns endothelial cells. Put plainly: in vivo binding to endothelial cells (intravenously injected mice, isolated mouse endothelial cells). Particulars: mouse animal model, FIG. 12B. The text has this:
The endothelial cells were isolated according to the manufacturer's (Dynal Biotec, Lake Success, N.Y.) instructions, using Dynabeads coupled to anti-CD31 antibody and the Dynal Magnetic holder. Briefly, for endothelial cell isolation, four to six mice (6-10 weeks old) were anesthetized, followed by exposure of the peritoneal cavity. Excised lungs and hearts were put into RPMI media, followed by removing other tissues from the heart and lungs, and then rinsing once in PBS. The lungs and heart were incubated with 1.0 mg/mL of collagenase A in a 50 mL tube for 1 h at around 37° C. Every 5 min during this incubation, the tube was gently agitated for a few seconds, and then the suspension was transferred into a new 50 mL tube by passing it through the 70 um tissue sieve (BD Falcon). The filtered cell suspension was centrifuged for 10 min at 1000 rpm. After removal of the supernatant, the cell pellet was washed once with cold PBS in a new 15-mL tube. […]
A direct cell-binding assay was performed on HUVECs and in vivo using fluorescence labeled-PC-Gla, TFG, and TFMG. […] The fluorescence value of the HUVECs or endothelial cells were measured with tightly bound PC-Gla, TFG, and TFMG, respectively. The concentrations of PC-Gla, TFG, and TFMG were measured by using the nanoparticle ratio of fluorescent dye per protein.

B1: TFMG: as TFG with an MMP-2 cleavable linker (GPLGLAG) between ferritin fragment C-terminus and PC-Gla (apparently SEQ ID NO: 15) (protein)
chain: MGGTTFLLRNASGHMSSQIRQNYSTDVEAAVNSLVNLYLQASYTYLSLGFYFDRDDVALEGVSHFFRELAEEKREGYERLLKMQNQRGGRIFLQDIKKPAEDEWGKTPDAMKAAMALEKKLNQALLDLHALGSARTDPHLCDFLETHFLDEEVKLIKKMGDHLTNLHRLGGGSEFVDGGGSGTSGPLGLAGANSFLEELRHSSLERECIEEICDFEEAKEIFQNVDDTLAFWSKHVLEHHHHHH
modifications: Fusion polypeptide (2)
Consider B1, for which, in experiment [1], the “degree of binding to HUVECs” value is “strong binding affinities which are equivalent to that of PC-Gla”; the “in vitro binding to endothelial cells compared with PC-Gla” value was “bound more strongly to, and stayed longer on, endothelial cells than PC-Gla did”. Also, the “in vivo vascular permeability” value in experiment [2] is given as “alleviated”. Further, in experiment [3], the survival rate result is “significantly improved” and the “overall effectiveness in sepsis treatment” value was “more effective antiseptic than TFG”. The “in vivo binding by immunohistochemistry” value in experiment [4] is “colocalized with EPCR and CD31”. The “in vivo binding to endothelial cells compared with PC-Gla” value in experiment [5] is “bound more strongly to, and stayed longer on, endothelial cells than PC-Gla did”.

B2: TFG: fusion polypeptide: TRAP at N-terminus and PC-Gla at C-terminus of short ferritin monomer fragment, forms nanocage (apparently SEQ ID NO: 14) (protein)
chain: MGGTTFLLRNASGHMSSQIRQNYSTDVEAAVNSLVNLYLQASYTYLSLGFYFDRDDVALEGVSHFFRELAEEKREGYERLLKMQNQRGGRIFLQDIKKPAEDEWGKTPDAMKAAMALEKKLNQALLDLHALGSARTDPHLCDFLETHFLDEEVKLIKKMGDHLTNLHRLGGGSEFVDGGGSGTSANSFLEELRHSSLERECIEEICDFEEAKEIFQNVDDTLAFWSKHVLEHHHHHH
modifications: Fusion polypeptide (1)
On to B2, for which, in experiment [1], the “degree of binding to HUVECs” value is recorded as “strong binding affinities which are equivalent to that of PC-Gla”; the “in vitro binding to endothelial cells compared with PC-Gla” value is “bound more strongly to, and stayed longer on, endothelial cells than PC-Gla did”. Also, the “in vivo vascular permeability” value in experiment [2] is recorded as “alleviated”. In experiment [3], the survival rate entry is reported as “significantly improved” and the “overall effectiveness in sepsis treatment” value is recorded as “significantly effective”. Besides, the “in vivo binding by immunohistochemistry” value in experiment [4] was “colocalized with EPCR and CD31”. For the same molecule, in experiment [5], the “in vivo binding to endothelial cells compared with PC-Gla” value is “bound more strongly to, and stayed longer on, endothelial cells than PC-Gla did”.
